The results in this text go back to article PMC12331966.

What all share (experiment): EMSA
One series has as its target T1, TIA1 WT (Homo sapiens, UniProt P31483 1-386).
T1 sequence: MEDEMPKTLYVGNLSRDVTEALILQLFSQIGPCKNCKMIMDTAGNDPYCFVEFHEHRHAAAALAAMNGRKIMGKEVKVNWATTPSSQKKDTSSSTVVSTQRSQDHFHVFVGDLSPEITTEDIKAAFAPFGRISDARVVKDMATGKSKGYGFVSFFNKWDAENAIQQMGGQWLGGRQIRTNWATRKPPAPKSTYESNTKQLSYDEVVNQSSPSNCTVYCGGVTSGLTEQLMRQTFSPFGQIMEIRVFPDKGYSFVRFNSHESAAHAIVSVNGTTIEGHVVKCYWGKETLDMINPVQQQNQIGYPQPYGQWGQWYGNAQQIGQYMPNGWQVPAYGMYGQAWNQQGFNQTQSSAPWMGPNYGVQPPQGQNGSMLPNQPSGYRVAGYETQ

Another series has as its target PABPC1 WT (Homo sapiens, UniProt P11940 1-636).
The next series deals with PABPC1 K512R (Homo sapiens, UniProt P11940 1-636, K512R).
Sequence of PABPC1 K512R (P11940 whole entry K512R): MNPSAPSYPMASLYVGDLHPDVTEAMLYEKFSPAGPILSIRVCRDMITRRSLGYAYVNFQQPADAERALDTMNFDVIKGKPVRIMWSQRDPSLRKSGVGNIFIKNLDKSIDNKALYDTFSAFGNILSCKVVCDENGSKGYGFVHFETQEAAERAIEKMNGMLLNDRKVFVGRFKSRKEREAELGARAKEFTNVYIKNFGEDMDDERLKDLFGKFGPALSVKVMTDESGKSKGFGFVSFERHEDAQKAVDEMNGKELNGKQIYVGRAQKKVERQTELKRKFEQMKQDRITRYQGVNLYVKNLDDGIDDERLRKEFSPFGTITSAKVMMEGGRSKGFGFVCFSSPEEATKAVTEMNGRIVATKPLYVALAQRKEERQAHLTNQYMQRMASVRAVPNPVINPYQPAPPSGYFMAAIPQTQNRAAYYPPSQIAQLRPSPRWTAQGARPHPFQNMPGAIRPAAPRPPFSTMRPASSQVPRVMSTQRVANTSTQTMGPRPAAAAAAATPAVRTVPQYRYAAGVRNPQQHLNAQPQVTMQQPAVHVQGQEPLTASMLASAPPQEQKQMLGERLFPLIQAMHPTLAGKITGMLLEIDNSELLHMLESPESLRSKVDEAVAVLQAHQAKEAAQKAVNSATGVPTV

Sequence of PABPC1 WT (P11940 whole entry): as the sequence (P11940 whole entry K512R) above, with R512K counted along it

B1: Bio-polyU (ssRNA)
RNA: CUUUUUUUUUUUUUUUUUUUUUUUUG
With B1, the binding result in the series with TIA1 WT is reported as “binds”.

B2: Bio-A90 (ssRNA)
RNA: GCCUUUCAUCUCUAACUGCGAAAAAAAAAAAAAAAAAAAAAAAAAAAAAAAAAAAAAAAAAAAAAAAAAAAAAAAAAAAAAAAAAAAAAAAAAAAAAAAAAAAAAAAAAA
B2: the binding result in the series with PABPC1 WT and with PABPC1 K512R was “binds” in each case.
